{"source": "paper PMC8200818", "about": "“SPECT/CT Imaging, Biodistribution and Radiation Dosimetry of a ^177Lu-DOTA-Integrin αvβ6 Cystine Knot Peptide in a Pancreatic Cancer Xenograft Model” (Frontiers in Oncology, 2021)", "assay": "in vivo", "conditions": "female, mouse, iv, 1 MBq, total radioactivity; for tissue uptake at 24 h: 24 h p.i.; for tissue uptake at 24 h / tissue uptake at 48 h / tissue uptake at 72 h / tissue uptake at 192 h: nude mice, Capan-2 xenografts, mean ± SD (4 ≤ n ≤ 5); for tissue uptake at 48 h: 48 h p.i.; for tissue uptake at 72 h: 72 h p.i.; for tissue uptake at 192 h: 192 h p.i.", "text": "For in vivo experiments, at least 8-week-old female athymic NMRI-Foxn1^nu/Foxn1^nu mice (Janvier Labs, Saint-Berthevin, France) were used. Animal care followed institutional guidelines and all experiments were approved by local animal research authorities. For the generation of tumor xenografts, 5 x 10^6 cells of Capan-2 cells were inoculated subcutaneously into the left and right shoulder (1:1 phosphate-buffered saline [PBS]/Matrigel Basement Membrane Matrix High Concentration, Corning, Corning, USA). Tumors were allowed to grow for two to four weeks (tumor volume > 100 mm^3) after cell inoculation.\nRadiolabeling of the DOTA-integrin αvβ6 knottin was carried out manually using [^177Lu]LuCl3 and a reagent kit from ITG Isotope Technologies Garching GmbH (Garching, Germany). A total of 40 µL (stock solution of peptide at 1 µg/µL in 10% DMSO in water) was added to 500 µL of ascorbate buffer solution pH 5.0, prepared from the kit (composition not disclosed by vendor) and the resulting mixture was then added to 35 µL of [^177Lu]LuCl3 (2 GBq in aqueous 0.04 M HCl) and the reaction mixture was heated at 80 °C for 35 minutes followed by cooling for 10 minutes at room temperature. The product was then diluted with 0.5 mL of saline and the pH was adjusted to 7 using a 1 M aqueous solution of NaHCO3 prior to injection in mice. A reverse-phase HPLC system (Knauer GmbH, Germany) with a column (Eurospher II, C18, 250 × 4 mm) was used to determine the radiochemical purity of the radiotracer. The HPLC system was equipped with an Azura P.6.1L pump coupled with ultraviolet (Azura UVD 2.1L) and radiometric (γ-Raytest-Isotopenmessgeraete GmbH, Germany) detectors. The gradient elution system used mobile phase A (100% acetonitrile) and mobile phase B (deionized H2O containing 0.1% trifluoroacetic acid) and a flow rate of 1.0 mL/min. Starting with 0% A and 100% B, the gradient was increased to 100% A over 25 min and finally returned to initial gradient conditions within 5 min.\nTumor-bearing mice (n=4-5 per time point) were injected with approximately 1 MBq (22 pmol) of ^177Lu-DOTA-integrin αvβ6 knottin to the tail vein via a catheter. Mice (n=4-5 per time point) were sacrificed and dissected one, two, three and eight days post injection. Tumor, blood, stomach, pancreas, small intestine, colon, liver, spleen, kidney, heart, lung, muscle and femur samples were weighed and uptake of radioactivity was measured by a gamma counter.", "key": {"[1]": {"conditions": "NMRI-Foxn1^nu/Foxn1^nu (athymic nude), colon, Colon uptake, ~1 MBq i.v."}, "[2]": {"conditions": "NMRI-Foxn1^nu/Foxn1^nu (athymic nude), liver, Liver uptake, ~1 MBq i.v."}, "[3]": {"conditions": "NMRI-Foxn1^nu/Foxn1^nu (athymic nude), small intestine, Small intestine uptake, ~1 MBq i.v."}, "[4]": {"conditions": "NMRI-Foxn1^nu/Foxn1^nu (athymic nude), spleen, Spleen uptake, ~1 MBq i.v."}, "[5]": {"conditions": "NMRI-Foxn1^nu/Foxn1^nu (athymic nude), tail, Tail activity, ~1 MBq i.v."}, "[6]": {"conditions": "NMRI-Foxn1^nu/Foxn1^nu (athymic nude), tumor, Tumor uptake, ~1 MBq (22 pmol) i.v."}, "[7]": {"conditions": "NMRI-Foxn1^nu/Foxn1^nu (athymic nude), tumor/blood"}, "[8]": {"conditions": "NMRI-Foxn1^nu/Foxn1^nu (athymic nude), tumor/kidney"}, "[9]": {"conditions": "NMRI-Foxn1^nu/Foxn1^nu (athymic nude), tumor/liver"}, "[10]": {"conditions": "NMRI-Foxn1^nu/Foxn1^nu (athymic nude), tumor/muscle"}, "[11]": {"conditions": "NMRI-Foxn1^nu/Foxn1^nu (athymic nude), tumor/pancreas"}, "[12]": {"conditions": "athymic NMRI-Foxn1^nu/Foxn1^nu, blood, Blood activity, ~1 MBq i.v."}}}
{"molecule": "CC[C@H](C)[C@@H]1NC(=O)[C@@H](NC(=O)CNC(=O)CN2CCN(CC(=O)O)CCN(CC(=O)O)CCN(CC(=O)O)CC2)CSSC[C@@H]2NC(=O)[C@H](C)NC(=O)CNC(=O)[C@@H]3CCCN3C(=O)[C@@H]3CSSC[C@@H](C(=O)NCC(=O)O)NC(=O)[C@H](Cc4ccc(O)cc4)NC(=O)CNC(=O)[C@H](CC(N)=O)NC(=O)CNC(=O)[C@H](CCCNC(=N)N)NC(=O)[C@H](CSSC[C@H](NC(=O)[C@H](CCCNC(=N)N)NC(=O)[C@H](Cc4ccccc4)NC(=O)[C@H](CC(C)C)NC(=O)[C@H](CC(C)C)NC(=O)[C@H]([C@@H](C)O)NC(=O)CNC(=O)[C@H](CC(C)C)NC(=O)[C@H](CC(=O)O)NC(=O)[C@H]([C@@H](C)O)NC(=O)[C@H](CCCNC(=N)N)NC(=O)CNC(=O)[C@H](CC(N)=O)NC(=O)[C@H](CC(C)C)NC1=O)C(=O)N[C@@H](CCCNC(=N)N)C(=O)N[C@@H](CCCNC(=N)N)C(=O)N[C@@H](CC(=O)O)C(=O)N[C@@H](CO)C(=O)N[C@@H](CC(=O)O)C(=O)N3)NC(=O)[C@H]([C@@H](C)CC)NC2=O", "note": "[^177Lu-DOTA-integrin αvβ6 knottin, metal not drawn]", "values": [{"measurement": "tissue uptake at 24 h", "setting": "[1]", "value": 1.37, "unit": "%ID/g"}, {"measurement": "tissue uptake at 48 h", "setting": "[1]", "value": 0.56, "unit": "%ID/g"}, {"measurement": "tissue uptake at 72 h", "setting": "[1]", "value": 0.43, "unit": "%ID/g"}, {"measurement": "tissue uptake at 192 h", "setting": "[1]", "value": 0.04, "unit": "%ID/g"}, {"measurement": "tissue uptake at 24 h", "setting": "[2]", "value": 0.24, "unit": "%ID/g"}, {"measurement": "tissue uptake at 48 h", "setting": "[2]", "value": 0.18, "unit": "%ID/g"}, {"measurement": "tissue uptake at 72 h", "setting": "[2]", "value": 0.2, "unit": "%ID/g"}, {"measurement": "tissue uptake at 192 h", "setting": "[2]", "value": 0.08, "unit": "%ID/g"}, {"measurement": "tissue uptake at 24 h", "setting": "[3]", "value": 0.76, "unit": "%ID/g"}, {"measurement": "tissue uptake at 48 h", "setting": "[3]", "value": 0.35, "unit": "%ID/g"}, {"measurement": "tissue uptake at 72 h", "setting": "[3]", "value": 0.27, "unit": "%ID/g"}, {"measurement": "tissue uptake at 192 h", "setting": "[3]", "value": 0.02, "unit": "%ID/g"}, {"measurement": "tissue uptake at 24 h", "setting": "[4]", "value": 0.06, "unit": "%ID/g"}, {"measurement": "tissue uptake at 48 h", "setting": "[4]", "value": 0.07, "unit": "%ID/g"}, {"measurement": "tissue uptake at 72 h", "setting": "[4]", "value": 0.18, "unit": "%ID/g"}, {"measurement": "tissue uptake at 72 h", "setting": "[5]", "value": 0.16, "unit": "%ID/g"}, {"measurement": "tissue uptake at 192 h", "setting": "[5]", "value": 0.08, "unit": "%ID/g"}, {"measurement": "tissue uptake at 48 h", "setting": "[6]", "value": 2.45, "unit": "%ID/g"}, {"measurement": "tissue uptake at 72 h", "setting": "[6]", "value": 3.46, "unit": "%ID/g"}, {"measurement": "tissue uptake at 192 h", "setting": "[6]", "value": 1.16, "unit": "%ID/g"}, {"measurement": "Kp at 24 h", "setting": "[7]", "value": 498}, {"measurement": "Kp at 48 h", "setting": "[7]", "value": 851}, {"measurement": "Kp at 72 h", "setting": "[7]", "value": 697}, {"measurement": "Kp at 192 h", "setting": "[7]", "value": 2120}, {"measurement": "tissue to tissue ratio at 24 h", "setting": "[8]", "value": 0.17}, {"measurement": "tissue to tissue ratio at 48 h", "setting": "[8]", "value": 0.19}, {"measurement": "tissue to tissue ratio at 72 h", "setting": "[8]", "value": 0.24}, {"measurement": "tissue to tissue ratio at 192 h", "setting": "[8]", "value": 0.51}, {"measurement": "tissue to tissue ratio at 24 h", "setting": "[9]", "value": 13}, {"measurement": "tissue to tissue ratio at 48 h", "setting": "[9]", "value": 13.6}, {"measurement": "tissue to tissue ratio at 72 h", "setting": "[9]", "value": 18.4}, {"measurement": "tissue to tissue ratio at 192 h", "setting": "[9]", "value": 14.6}, {"measurement": "tissue to tissue ratio at 24 h", "setting": "[10]", "value": 13.1}, {"measurement": "tissue to tissue ratio at 48 h", "setting": "[10]", "value": 23.1}, {"measurement": "tissue to tissue ratio at 72 h", "setting": "[10]", "value": 35.8}, {"measurement": "tissue to tissue ratio at 192 h", "setting": "[10]", "value": 32.9}, {"measurement": "tissue to tissue ratio at 24 h", "setting": "[11]", "value": 13.1}, {"measurement": "tissue to tissue ratio at 48 h", "setting": "[11]", "value": 15.6}, {"measurement": "tissue to tissue ratio at 72 h", "setting": "[11]", "value": 27}, {"measurement": "tissue to tissue ratio at 192 h", "setting": "[11]", "value": 38.7}, {"measurement": "tissue uptake at 24 h", "setting": "[12]", "value": 0.01, "unit": "%ID/g"}, {"measurement": "tissue uptake at 72 h", "setting": "[12]", "value": 0.01, "unit": "%ID/g"}]}
